Broadly, the Kd is the constant that tells how readily two partners part at equilibrium.

Assay [1] relates to SK-BR-3 human breast carcinoma cells. As to the kind of experiment: cells. The assay is classed as cell-based. Particulars: 10-min exposure, then 72 hours growth, read-out: IC50 (doxorubicin concentration resulting in 50% cell growth inhibition).
Procedure: SK-BR-3 human breast carcinoma cell line was purchased from American Tissue Type Culture Collection (ATCC, Manassas, Va.). Cells were maintained in in vitro culture in McCoy's 5A modified medium supplemented with 10% fatal bovine serum and were maintained in a humidified incubator at 37° C.
Cells were exposed for 10 minutes to doxorubicin (1.8 mg/mL) in free form, doxorubicin entrapped in PEGylated liposomes (2.06 mg/mL), or an immunoliposome formulation having 2 antibodies per liposome (1.86 mg/mL), 5 antibodies per liposome (2.12 mg/mL), 7.5 antibodies per liposome (1.99 mg/mL), or 15 antibodies per liposome (2 mg/mL).
Log-phase SK-BR-3 breast cancer cells were harvested using Versene (1:5000), resuspended in growth media at concentration of 5×10^4 cells/mL. […] At the end of incubation, the amount of viable cells was determined using the Promega CellTiter 96® Aqueous One Solution Cell Proliferation Assay (a tetrazolium based colorimetric method for determining the number of viable cells in proliferation, Madison, Wis.). […] The plates were then incubated for 3-4 hours after which absorbance was recorded at 490 nm with a microplate reader. Cell viability was calculated as % of untreated control using the formula: % Viability=(A−A0)/(A100−A0)×100% where A is the measured absorbance, A0 is the absorbance of the blanks, and A100 is the absorbance of the wells with untreated cells. […]
Assay [2] addresses T1, HER2 receptor (human, UniProt P04626 23-1255). The assay can be described thus: cell-based or functional assay.
Assay [3] addresses extracellular domain of HER2 receptor (Homo sapiens, UniProt P04626). The following applies: read-out: HER2 binding affinity (Kd); cited from earlier work.
Assay [4] deals with T1, HER2 receptor. As to the kind of experiment: 4 h incubation of immunoliposomes with SK-BR-3 cells (IHC 3+), wash, lysis, doxorubicin fluorescence. How it is done:
SK-BR-3 or MCF-7 cells at 1.5×10⁵ cells/0.5 mL of growth medium per well were added to a 24-well plate. After overnight incubation for attachment and acclimation, cells were treated with immunoliposomes ([…], 15:1, 30:1, and 45:1 anti-HER2 antibodies:liposome), or liposomes at 0.015 mg/mL in 0.5 mL growth media/well in duplicates. The 24-well plates were then placed on a rotating platform inside the incubator with rotation at 40-60 rpm at 37° C., 5% CO₂, and 100% humidity for 4 hours. After incubation, cell medium were aspirated and cells were washed four times with Hank's Balanced Salt Solution (HBSS). After this, cells were lysed by adding 0.1 mL of 1% Triton X-100 to each well. The plates were swirled to mix and placed on a rotating platform for 15 minutes at room temperature. During this step, cells detached from the bottom of the plate and the cell nuclei formed visible clumps. Acid isopropanol (1.0 mL) were added to the wells containing the Triton X-100 solution and mixed by swirling or pipetting up and down until the visible clumps disappeared.
Doxorubicin content in the cell lysates was measured by a spectrofluorometer using an excitation wavelength of 470 nm and an emission wavelength of 590 nm. The spectrofluorometer settings were as follows: slit width 2 nm, integration time 1 second, photomultiplier voltage 950 V, and single wavelength acquisition mode. Fluorescence of the background cell lysate was subtracted and the amount of doxorubicin in the cell lysates was determined from the concurrently measured standards (10, 25, 50, 100, 250, 500, 1000, and 2500 ng of doxorubicin per sample) fit to a standard curve using quadratic polynomial regression. Cell uptake of doxorubicin was determined by interpolation from the standard curve.

Values after ≈ are worked out from the molar mass of the structure shown.

In the case of `COc1cccc2c1C(=O)c1c(O)c3c(c(O)c1C2=O)C[C@@](O)(C(=O)CO)C[C@@H]3O[C@H]1C[C@H](N)[C@H](O)[C@H](C)O1` [free doxorubicin, doxorubicin], the IC50 in assay [1] is ~9.5 µg/mL (≈ 17.5 µM).

B1: anti-Her2 immunoliposome formulation with scFv/liposome ratio of 5 (scFv)
scFv: QVQLVESGGGLVQPGGSLRLSCAASGFTFRSYAMSWVRQAPGKGLEWVSAISGRGDNTYYADSVKGRFTISRDNSKNTLYLQMNSLRAEDTAVYYCAKMTSNAFAFDYWGQGTLVTVSSGGGGSGGGGSGGGGSQSVLTQPPSVSGAPGQRVTISCTGSSSNIGAGYGVHWYQQLPGTAPKLLIYGNTNRPSGVPDRFSGFKSGTSASLAITGLQAEDEADYYCQSYDSSLSGWVFGGGTKLTVLG
modifications: terminal cysteine coupled through a thioether linkage to maleimide-PEG-DSPE
With B1, the “IC50 (cytotoxicity, SK-BR-3 cells, 10-min exposure, doxorubicin concentration)” value with HER2 receptor [2] is ~30 µg/mL.

B2: F5: single chain antibody fragment (scFv), 251 amino acids, binds extracellular domain of HER2 receptor, SEQ ID NO: 2 (protein, listed as Homo sapiens)
scFv: QVQLVESGGGLVQPGGSLRLSCAASGFTFRSYAMSWVRQAPGKGLEWVSAISGRGDNTYYADSVKGRFTISRDNSKNTLYLQMNSLRAEDTAVYYCAKMTSNAFAFDYWGQGTLVTVSSGGGGSGGGGSGGGGSQSVLTQPPSVSGAPGQRVTISCTGSSSNIGAGYGVHWYQQLPGTAPKLLIYGNTNRPSGVPDRFSGFKSGTSASLAITGLQAEDEADYYCQSYDSSLSGWVFGGGTKLTVLG
Regarding B2, the dissociation constant (Kd) in assay [3] is 150 to 300 nM.

B3: Anti-HER2 Immunoliposomes (7.5:1) (scFv)
scFv: QVQLVESGGGLVQPGGSLRLSCAASGFTFRSYAMSWVRQAPGKGLEWVSAISGRGDNTYYADSVKGRFTISRDNSKNTLYLQMNSLRAEDTAVYYCAKMTSNAFAFDYWGQGTLVTVSSGGGGSGGGGSGGGGSQSVLTQPPSVSGAPGQRVTISCTGSSSNIGAGYGVHWYQQLPGTAPKLLIYGNTNRPSGVPDRFSGFKSGTSASLAITGLQAEDEADYYCQSYDSSLSGWVFGGGTKLTVLG
modifications: terminal cysteine coupled through a thioether linkage to maleimide-PEG-DSPE
notes: On average 7.5 scFv per liposome; also called 7.5:1 immunoliposome formulation; immunoliposomes containing 7.5 antibodies per liposome
With B3, the “Doxorubicin (pg/cell), cellular binding/uptake” value with HER2 receptor [4] came to 6.02 pg/cell. Further, in the assay with HER2 receptor [2], the “IC50 (cytotoxicity, SK-BR-3 cells, 10-min exposure, doxorubicin concentration)” value is ~16 µg/mL.

B4: Anti-HER2 Immunoliposomes (15:1) (scFv)
scFv: QVQLVESGGGLVQPGGSLRLSCAASGFTFRSYAMSWVRQAPGKGLEWVSAISGRGDNTYYADSVKGRFTISRDNSKNTLYLQMNSLRAEDTAVYYCAKMTSNAFAFDYWGQGTLVTVSSGGGGSGGGGSGGGGSQSVLTQPPSVSGAPGQRVTISCTGSSSNIGAGYGVHWYQQLPGTAPKLLIYGNTNRPSGVPDRFSGFKSGTSASLAITGLQAEDEADYYCQSYDSSLSGWVFGGGTKLTVLG
modifications: terminal cysteine coupled through a thioether linkage to maleimide-PEG-DSPE
notes: On average 15 scFv per liposome; also called 15:1 immunoliposome formulation; immunoliposomes with 15 antibodies per liposome
Consider B4, for which, in the assay with HER2 receptor [4], the “Doxorubicin (pg/cell), cellular binding/uptake” value stood at 8.35 pg/cell. Further, the “IC50 (cytotoxicity, SK-BR-3 cells, 10-min exposure, doxorubicin concentration)” value in the assay with HER2 receptor [2] is ~3.9 µg/mL.

B5: Anti-HER2 Immunoliposomes (45:1) (scFv)
scFv: QVQLVESGGGLVQPGGSLRLSCAASGFTFRSYAMSWVRQAPGKGLEWVSAISGRGDNTYYADSVKGRFTISRDNSKNTLYLQMNSLRAEDTAVYYCAKMTSNAFAFDYWGQGTLVTVSSGGGGSGGGGSGGGGSQSVLTQPPSVSGAPGQRVTISCTGSSSNIGAGYGVHWYQQLPGTAPKLLIYGNTNRPSGVPDRFSGFKSGTSASLAITGLQAEDEADYYCQSYDSSLSGWVFGGGTKLTVLG
modifications: terminal cysteine coupled through a thioether linkage to maleimide-PEG-DSPE
notes: On average 45 scFv per liposome; also called 45:1 immunoliposome formulation; F5 scFv immunoliposome
As for B5, the “Doxorubicin (pg/cell), cellular binding/uptake” value with HER2 receptor [4] came out at 4.39 pg/cell.

B6: Anti-HER2 Immunoliposomes (30:1) (scFv)
scFv: QVQLVESGGGLVQPGGSLRLSCAASGFTFRSYAMSWVRQAPGKGLEWVSAISGRGDNTYYADSVKGRFTISRDNSKNTLYLQMNSLRAEDTAVYYCAKMTSNAFAFDYWGQGTLVTVSSGGGGSGGGGSGGGGSQSVLTQPPSVSGAPGQRVTISCTGSSSNIGAGYGVHWYQQLPGTAPKLLIYGNTNRPSGVPDRFSGFKSGTSASLAITGLQAEDEADYYCQSYDSSLSGWVFGGGTKLTVLG
modifications: terminal cysteine coupled through a thioether linkage to maleimide-PEG-DSPE
notes: On average 30 scFv per liposome; also called 30:1 immunoliposome formulation; F5 scFv immunoliposome
Take B6: in the assay with HER2 receptor [4], the “Doxorubicin (pg/cell), cellular binding/uptake” value stood at 6.66 pg/cell.

The values above are taken from patent publication US20060269542A1, “Immunoliposome composition for targeting to a HER2 cell receptor” (priority 2005, published 2006).
